# Source: IntAct's records for PubMed 21108945
# Tests used:
# nbn_human NBN [1] = target: nbn_human NBN (UniProt O60934)
# nbn_human NBN [2] = target: nbn_human NBN (UniProt O60934); remark: listed apart in the source
# Sequence of UniProt O60934 (O60934 whole entry): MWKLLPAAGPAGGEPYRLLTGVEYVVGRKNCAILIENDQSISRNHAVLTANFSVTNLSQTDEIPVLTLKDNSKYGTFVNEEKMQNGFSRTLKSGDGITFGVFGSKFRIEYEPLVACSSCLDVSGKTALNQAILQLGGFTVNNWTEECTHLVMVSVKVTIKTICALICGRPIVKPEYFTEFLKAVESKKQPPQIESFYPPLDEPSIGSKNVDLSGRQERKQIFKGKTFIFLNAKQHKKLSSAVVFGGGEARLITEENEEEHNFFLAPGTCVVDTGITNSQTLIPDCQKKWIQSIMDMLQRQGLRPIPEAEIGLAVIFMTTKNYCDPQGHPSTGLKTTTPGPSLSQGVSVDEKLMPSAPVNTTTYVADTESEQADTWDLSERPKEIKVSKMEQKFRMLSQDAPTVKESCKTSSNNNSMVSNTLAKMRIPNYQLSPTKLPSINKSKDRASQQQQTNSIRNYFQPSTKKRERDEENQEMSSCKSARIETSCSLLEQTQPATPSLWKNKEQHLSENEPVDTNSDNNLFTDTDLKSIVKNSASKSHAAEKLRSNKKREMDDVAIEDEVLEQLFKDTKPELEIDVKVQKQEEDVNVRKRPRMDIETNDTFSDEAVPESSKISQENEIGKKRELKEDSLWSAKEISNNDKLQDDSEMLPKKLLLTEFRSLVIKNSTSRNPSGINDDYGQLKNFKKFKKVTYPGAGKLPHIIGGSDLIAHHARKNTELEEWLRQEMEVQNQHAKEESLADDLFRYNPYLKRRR
substance,measurement,setting,value
"Histone acetyltransferase p300 (Homo sapiens), Q09472 S106A",effect of a mutation on the interaction,nbn_human NBN [1],disrupting interaction
same,effect of a mutation on the interaction,nbn_human NBN [2],decreasing interaction
